Test results as given in patent publication US20060062793A1, “Modified antibodies to prostate-specific membrane antigen and uses thereof” (priority 2004, published 2006).

Experiments:
[1] = tested on: LNCaP tumor xenografts; assay: Murine J591-DM1 immunoconjugate in BALB/c mice with LNCaP xenografts; assay type: in vivo, mouse; details: unconjugated, equimolar, intraperitoneal qday x 5 days
Procedure: Tumor xenografts of LNCaP cells were established in the right flank of BALB/c mice (5×10^6 cells injected subcutaneously). Animals were observed until tumors were visible (7-10 mm). Animals were then treated with PBS, unconjugated mAb J591, unconjugated DM1, both mAb J591 and DM1 but unconjugated, and J591-DM1 immunoconjugate (100, 200, 300, and 400 mcg/day intraperitoneal qday×5 days). The mAb J591 was modified to introduce dithiopyridyl groups and then conjugated to DM1 via a hindered disulfide bond, as described above. Unconjugated mAb J591 and DM1 were given in equimolar concentrations.
Tumor xenografts of both LNCaP cells (5×10^6 cells injected subcutaneously in the right flank) and PC3 cells (3×10^6 cells injected subcutaneously in the left flank) were established in BALB/c mice. Animals were observed until LNCaP tumors were visible (PC3 tumors were present but much smaller). Animals treated with J591-DM1 immunoconjugate: 300 mcg/day intraperitoneal qday×5 days
Tumor xenografts of LNCaP cells were established subcutaneously in the right flank of BALB/c mice. […]
All animals were photographed pre- and post-treatment and tagged for identification. Tumor volume was determined (length×width×depth) and closely followed. […]

[2] = tested on: CD-1 mice; assay: Single IV administration toxicity of deJ591-DM1 and DM1 in CD-1 mice; assay type: in vivo, mouse
[3] = tested on: androgen-independent PSMA-positive 22RV1 xenograft; assay: deJ591-DM1 efficacy in castrate or intact scid mice bearing 22RV1 xenograft; assay type: in vivo, mouse
Procedure: Prostate tumors can be broadly classified as either androgen-dependent or androgen-independent. […] The 22RV1 cell line was originally developed as androgen-independent and can be grown as a xenograft in C.B-17 scid mice that have been left either intact or castrated. […] This was approximately twice the time required for the tumors of intact mice to reach 1000 mm^3 (9.3 days). C.B-17 scid mice bearing CWR22 xenografts approximately 200 mm^3 in size received IV injections (200 μL constant volume) of the test articles according to the dosage and schedule shown in the Table 24.

[4] = tested on: PSMA-positive human LNCaP tumors; assay: Biodistribution of 111In labeled MAbs in nude mice bearing LNCaP tumors; assay type: in vivo, mouse
Procedure: Prior to use, the cells were trypsinized, counted and suspended in Matrigel (Collaborative Biomedical Products, Bedford, Mass.). Nu/Nu Balb C mice 8-10 weeks of age were inoculated, in the right and left flanks, with a suspension of 5×10^6 LNCaP cells in Matrigel (BD Biosciences, Bedford Mass.). After a period of 14-18 days, tumors (100-300 mg) had developed. The PSMA-negative DU145 and PC3 cells were implanted in nude mice in an identical manner.
The PSMA-positive and PSMA-negative tumor bearing mice were injected, via the tail vein, with 80 KBq of the iodinated MAb (400 MBq/mg) in 200 μL of PBS (pH 7.4, 0.2% BSA). Groups of animals (3-8/group) were sacrificed after 2, 4 or 6 days. The major organs and tumors were recovered. The tissue samples were weighed and counted, with appropriate standards in an automatic NaI(Tl) counter. These measured relative activity data (cpm) were background corrected and expressed as a percentage of the injected dose per gram (% ID/g). […] J415, J591 and 7E11 were labeled with ^111In (100 MBq/mg). 80 KBq of the ^111In labeled MAbs were injected in groups of animals. The % ID/g in various organs and tumor tissues was determined at 2-6 days post injection in a similar way as described for ^131I labeled MAbs.

[5] = tested on: hormone-refractory prostate cancer metastases; assay: Nuclear imaging with 111In or 177Lu labeled deJ591 versus standard imaging; assay type: in vivo, human
Procedure: The antibody scans were compared to standard imaging studies (bone, CT or MR scans) obtained on each patient to assess the underlying sensitivity, specificity, and accuracy of deJ591 targeting to metastatic sites. Bony and soft tissue metastases were evaluated independently.

[6] = tested on: vascular endothelium of solid tumors; assay: Phase I trial of 111In-DOTA-deJ591 in refractory non-prostate solid tumors; assay type: in vivo, human
Text: Eligible patients were those with refractory solid tumor malignancies whose tumor types are known to express PSMA on the neovasculature.
Patients the participated in the study included eight renal cell cancer patients, four bladder cancer patients, two colon cancer patients, and one pancreas cancer patient.

[7] = tested on: prostate cancer; details: after each radiolabeled dose over five months
Text: Dose twelve was radiolabeled with a therapeutic quantity of ^90Yttrium (19 mCi) calculated to deliver less than a 150 rad dose to the blood.

[8] = Pharmacokinetics of deJ591 and deJ591-DM1 in cynomolgus monkeys; assay type: in vivo; details: Monkey, male & female
[9] = tested on: recurrent, progressing prostate cancer; assay: Phase I trial of four weekly doses of 111In-DOTA-deJ591; parameters: species or system human; details: human, in vivo
Procedure: Patients with recurrent, progressing prostate cancer received four weekly doses of ^111In-DOTA-deJ591. Doses were escalated in cohorts of three patients and ranged from 62.5-500 mg/m2 (total). […] After the first dose, patients were imaged on the day of injection (day 0) and days 1, 2, 4 and 7.
Serum PK, immune reaction and toxicity were evaluated after each dose for a minimum of 12 weeks.

Compound	mortality [1]	toxicity compared with deJ591-DM1 at equimolar dosages [2]	Relative TGD ([3]; Castrate mice, 240 μg/kg DM1-equivalents, q3dX5)	change in growth delay for castrate mice relative to androgen-intact mice ([3]; q3dx5) [fold]	tumor uptake over time [4]	negative mAb scans in patients without documented soft tissue metastases ([5]; fifteen patients) [%]	specificity, bone ([5]; seven patients with negative bone scans) [%]	Liver uptake ([6]; 5 mg)	Plasma clearance (T1/2) ([6]; 5 mg) [h]	Liver uptake ([6]; 10 mg)	Plasma clearance (T1/2) ([6]; 10 mg) [h]	Liver uptake ([6]; 20 mg)	Plasma clearance (T1/2) ([6]; 20 mg) [h]	tumor localization to known tumor sites [7]	Total deJ591 AUC ([8]; 6 mg/kg (72 mg/m^2), study KLA W-171) [µg·h/mL]	Total deJ591 AUC ([8]; 10 mg/kg (120 mg/m^2), study CTBR 57355) [µg·h/mL]	plasma half-life [9]
COc1cc2cc(c1Cl)N(C)C(=O)C[C@H](OC(=O)[C@H](C)N(C)C(=O)CCS)[C@]1(C)O[C@H]1[C@H](C)[C@@H]1C[C@@](O)(NC(=O)O1)[C@H](OC)/C=C/C=C(\C)C2 [DM1, reference compound]	died within 48 hours of treatment completion	tended to be less toxic than deJ591-DM1 at lower dosages	1.4	1.4													
deJ591					gradually increased with time and is quite similar to that of 7E11	100	100	28%±14%	21 ± 11	17%±7%	24 ± 6	13%±5%	37 ± 8	excellent	25200	49400	varied with dose
